Tests used:
[1] = biological target: SF1 (steroidogenic factor 1) (UniProt Q04752 1-461); experiment: two-hybrid
[2] = biological target: T1, hormone-binding domain (HBD) of ERR1 (UniProt P11474 1-423); experiment: two-hybrid
T1 sequence (looked up): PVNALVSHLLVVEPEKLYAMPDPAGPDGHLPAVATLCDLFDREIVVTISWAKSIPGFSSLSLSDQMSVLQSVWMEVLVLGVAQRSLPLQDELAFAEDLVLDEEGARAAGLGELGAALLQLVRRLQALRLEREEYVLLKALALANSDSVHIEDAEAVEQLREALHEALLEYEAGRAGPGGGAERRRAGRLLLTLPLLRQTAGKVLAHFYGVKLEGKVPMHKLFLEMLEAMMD

SF1 (steroidogenic factor 1), sequence (Q04752 whole entry, the tested form may be a part): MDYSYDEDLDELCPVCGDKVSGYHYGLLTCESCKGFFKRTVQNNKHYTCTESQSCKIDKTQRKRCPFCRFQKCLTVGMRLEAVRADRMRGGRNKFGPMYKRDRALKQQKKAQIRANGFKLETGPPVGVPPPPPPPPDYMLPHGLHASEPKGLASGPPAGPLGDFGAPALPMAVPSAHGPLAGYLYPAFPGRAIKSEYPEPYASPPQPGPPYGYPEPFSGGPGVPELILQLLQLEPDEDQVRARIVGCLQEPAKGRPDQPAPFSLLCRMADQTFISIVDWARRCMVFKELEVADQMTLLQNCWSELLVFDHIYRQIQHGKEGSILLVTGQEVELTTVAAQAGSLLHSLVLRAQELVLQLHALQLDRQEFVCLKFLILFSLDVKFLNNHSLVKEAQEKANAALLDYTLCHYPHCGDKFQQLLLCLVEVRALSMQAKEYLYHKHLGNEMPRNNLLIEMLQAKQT

B1: PNRC1d (natural protein)
chain: not shown
[1]
  fold increase of affinity compared to fl PNRC (two-hybrid β-galactosidase): > 10 fold
[2]
  fold increase of affinity compared to fl PNRC (two-hybrid β-galactosidase): > 10 fold
